Data on one molecule can be found in article PMC2944808 (2010).

The target in the assay is T1, Chordin VWC2 (UniProt Q9H2X0).
T1 chain: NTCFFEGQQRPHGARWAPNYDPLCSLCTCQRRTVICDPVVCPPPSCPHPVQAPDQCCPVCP
Nature of the assay: SPR.

B1: Crossveinless-2 (protein)
chain: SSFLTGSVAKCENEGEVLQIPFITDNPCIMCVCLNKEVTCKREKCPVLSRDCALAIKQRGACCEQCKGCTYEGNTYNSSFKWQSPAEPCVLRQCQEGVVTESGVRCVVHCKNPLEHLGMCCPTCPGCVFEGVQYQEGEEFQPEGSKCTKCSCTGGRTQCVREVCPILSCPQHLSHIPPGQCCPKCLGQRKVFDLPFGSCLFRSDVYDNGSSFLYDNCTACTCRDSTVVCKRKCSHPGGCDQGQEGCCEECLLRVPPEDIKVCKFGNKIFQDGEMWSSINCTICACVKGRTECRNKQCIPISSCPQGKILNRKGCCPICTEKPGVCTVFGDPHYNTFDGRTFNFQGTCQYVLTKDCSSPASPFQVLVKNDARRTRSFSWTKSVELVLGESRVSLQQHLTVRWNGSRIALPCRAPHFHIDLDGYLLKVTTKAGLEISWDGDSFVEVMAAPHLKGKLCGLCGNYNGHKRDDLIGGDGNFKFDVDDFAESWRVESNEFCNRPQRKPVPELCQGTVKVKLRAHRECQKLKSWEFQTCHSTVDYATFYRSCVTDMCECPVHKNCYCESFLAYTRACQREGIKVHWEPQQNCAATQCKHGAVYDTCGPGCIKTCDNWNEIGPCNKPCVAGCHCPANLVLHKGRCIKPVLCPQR
B1: binding was put at a Kd of 5 nM.
